{"source": "paper PMC4449314", "key": {"[1]": {"target": "HA-tagged human DAP12 (full length, both native cysteines), in 293T cells (human), O43914", "assay": "non-reducing SDS-PAGE of disulfide-linked products after anti-HA IP", "conditions": "remark: other sources report otherwise"}, "[2]": {"target": "HA-tagged human DAP12 wild type, in vitro translated with ER microsomes (human), O43914", "assay": "non-reducing SDS-PAGE of disulfide-linked products after anti-HA IP", "conditions": "remark: other sources report otherwise"}}, "note": "Where “and” joins values, the source holds several entries; their conditions need not be identical. Equal entries are not always repeated."}
{"binder": "HA-tagged human DAP12 (full length, both native cysteines), in 293T cells, O43914 22-113 (natural protein) LRPVQAQAQSDCSCSTVSPGVLAGIVMGDLVLTVLIALAVYFLGRLVPRGRGAAEAATRKQRITETESPYQELQGQRSDVYSDLNTQRPYYK", "values": [{"measurement": "stoichiometry N", "setting": "[1]", "result": "2 and 3 and 4"}]}
{"binder": "HA-tagged human DAP12 wild type, in vitro translated with ER microsomes, O43914 22-113 (natural protein, here or on the partner: 35S-methionine/cysteine labelled; 35S-methionine/cysteine labelled) LRPVQAQAQSDCSCSTVSPGVLAGIVMGDLVLTVLIALAVYFLGRLVPRGRGAAEAATRKQRITETESPYQELQGQRSDVYSDLNTQRPYYK", "values": [{"measurement": "stoichiometry N", "setting": "[2]", "result": "3 and 4"}]}
